Experimental data: US12558381B2, “Development of amnion-like tissue from human pluripotent stem cells” (THE REGENTS OF THE UNIVERSITY OF MICHIGAN, priority 2016, dated 2026)

B1: NOGGIN: a protein that antagonizes BMP2/4/7 (protein, UniProt Q13253 28-232, looked up)
Noggin: QHYLHIRPAPSDNLPLVDLIEHPDPIFDPKEKDLNETLLRSLLGGHYDPGFMATSPPEDRPGGGGGAAGGAEDLAELDQLLRQRPSGAMPSEIKGLEFSEGLAQGKKQRLSKKLRRKLQMWLWSQTFCPVLYAWNDLGSRFWPRYVKVGSCFSKRSCSVPEGMVCKPSKSVHLTVLRWRCQRRGGQRCGWIPIQYPIISECKCSC

Tested on: hPSCs cultured in Gel-3D
Experiment: hPSC amniogenesis assay (Gel-3D culture), requirement of BMP-SMAD signalling
Assay type: cell-based, human
From the text: Implantation-Like Niche Described herein is a biomimicry approach to engineer a biomaterial-based in vitro hPSC culture system for efficient generation of early human amniotic tissue. Specifically, a biomimetic implantation-like niche for cultured hPSCs was constructed by implementing two major biophysical factors seen in the in vivo amniogenic niche: a three-dimensional (3D) extracellular matrix (ECM) that is provided by the basement membrane surrounding the epiblast during implantation 1l; and a soft tissue bed provided by the uterine wall and trophoblast to support the developing amnion (FIG. 1a,b). mTeSR1 medium and basement membrane matrix (Geltrex) was used to render the culture permissive for pluripotency maintenance. In this culture system, H9 human embryonic stem cells (hESCs) were plated as single cells at 30,000 cells cm^2 onto a thick, soft gel bed of Geltrex (with thickness 100 μm, bulk Young's modulus 900 Pa, coated on a glass coverslip), in mTeSR1 medium supplemented with the ROCK inhibitor Y2763212 (FIG. 1b). At 24 h (day 1), medium containing Y27632 was replaced by fresh mTeSR1 supplemented with 4% (v/v) Geltrex to establish a 3D implantation-like niche (referred to henceforth as the ‘Gel-3D’ condition). To assess the effect of ECM dimensionality and matrix rigidity, respectively, several modifications of this Gel-3D condition were tested (FIG. 1b). First, the Geltrex supplement was excluded from the medium, with the gel bed retained (referred to henceforth as the ‘Gel-2D’ condition). Second, the soft gel bed was replaced by a 1% Geltrex-coated glass coverslip (referred to henceforth as the ‘Glass-3D’ condition). Finally, a standard 2D culture, using a 1% Geltrex-coated glass coverslip (referred to henceforth as the ‘Glass-2D’ condition), was examined as a control that maintains hPSC self-renewal. Culture medium was replenished daily. Analyses were performed at day 5 unless otherwise noted (FIG. 1b). […]

Row | Molecule | hPSC-amnion development (hPSCs cultured in Gel-3D, treatment on day 2 alone or on both days 2 and 3, FIG. 5d) | development of hPSC-amnion (hPSCs in Gel-3D, treatment with NOGGIN) | amniogenic differentiation (restatement in Example 2 of the BMP-SMAD requirement for amniogenesis)
1 | c1ccc2c(-c3cnn4cc(-c5ccc(N6CCNCC6)cc5)cnc34)ccnc2c1 [LDN193189, reference compound] | inhibited hPSC-amnion development |  | 
2 | B1 |  | inhibited | inhibit amniogenic differentiation
